Legend:
STK19 (31-254) [1] = target: T1, STK19 (31-254) (human, UniProt P49842 31-254); experiment: EMSA; n = 4; 20 mM HEPES pH 7.4, 100 mM NaCl, 1 mM MgCl2, 1 mg/ml BSA, 2 mM DTT, 5% glycerol; 30 min on ice; native 5% PAGE in 1X TBE; details: protein: recombinant, tags: GST cleaved, GPLGS left at N-terminus
STK19 (31-254) [2] = target: T1, STK19 (31-254); experiment: EMSA; n = 2; 20 mM HEPES pH 7.4, 100 mM NaCl, 1 mM MgCl2, 1 mg/ml BSA, 2 mM DTT, 5% glycerol; 30 min on ice; native 5% PAGE in 1X TBE; details: protein: recombinant; tags: GST cleaved; GPLGS left at N-terminus; label: 5' IRDye 700 on rU30; blunt

T1 sequence (P49842 31-254): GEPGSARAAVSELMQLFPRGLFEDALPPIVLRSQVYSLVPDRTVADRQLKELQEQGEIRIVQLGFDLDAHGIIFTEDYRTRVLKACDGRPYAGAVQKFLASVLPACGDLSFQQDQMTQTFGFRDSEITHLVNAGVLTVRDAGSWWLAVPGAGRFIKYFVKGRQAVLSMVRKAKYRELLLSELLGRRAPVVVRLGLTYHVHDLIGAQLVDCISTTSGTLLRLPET

B1: ssDNA dT30 (ssDNA)
DNA: TTTTTTTTTTTTTTTTTTTTTTTTTTTTTT
STK19 (31-254) [1]; label: 5' IRDye 700
  Kd: 14.1 µM

B2: dsDNA 30-mer (dT-dA)30 (dsDNA)
DNA 1: B1 DNA
DNA 2: AAAAAAAAAAAAAAAAAAAAAAAAAAAAAA
STK19 (31-254) [1]; label: 5' IRDye 700 on dT30, blunt
  Kd: 2.2 µM

B3: dsRNA 30-mer (rU-rA)30 (dsRNA)
RNA 1: UUUUUUUUUUUUUUUUUUUUUUUUUUUUUU
RNA 2: B2 DNA 2
STK19 (31-254) [2]
  Kd: 3.2 µM

From paper PMC11189558, “Mutations found in cancer patients compromise DNA binding of the winged helix protein STK19”
